In this assay the target is GST-tagged Rb RxL mut (lacks all 5 RxL sequences in its unstructured regions) (human) (UniProt P06400).
Sequence of UniProt P06400 (P06400 whole entry): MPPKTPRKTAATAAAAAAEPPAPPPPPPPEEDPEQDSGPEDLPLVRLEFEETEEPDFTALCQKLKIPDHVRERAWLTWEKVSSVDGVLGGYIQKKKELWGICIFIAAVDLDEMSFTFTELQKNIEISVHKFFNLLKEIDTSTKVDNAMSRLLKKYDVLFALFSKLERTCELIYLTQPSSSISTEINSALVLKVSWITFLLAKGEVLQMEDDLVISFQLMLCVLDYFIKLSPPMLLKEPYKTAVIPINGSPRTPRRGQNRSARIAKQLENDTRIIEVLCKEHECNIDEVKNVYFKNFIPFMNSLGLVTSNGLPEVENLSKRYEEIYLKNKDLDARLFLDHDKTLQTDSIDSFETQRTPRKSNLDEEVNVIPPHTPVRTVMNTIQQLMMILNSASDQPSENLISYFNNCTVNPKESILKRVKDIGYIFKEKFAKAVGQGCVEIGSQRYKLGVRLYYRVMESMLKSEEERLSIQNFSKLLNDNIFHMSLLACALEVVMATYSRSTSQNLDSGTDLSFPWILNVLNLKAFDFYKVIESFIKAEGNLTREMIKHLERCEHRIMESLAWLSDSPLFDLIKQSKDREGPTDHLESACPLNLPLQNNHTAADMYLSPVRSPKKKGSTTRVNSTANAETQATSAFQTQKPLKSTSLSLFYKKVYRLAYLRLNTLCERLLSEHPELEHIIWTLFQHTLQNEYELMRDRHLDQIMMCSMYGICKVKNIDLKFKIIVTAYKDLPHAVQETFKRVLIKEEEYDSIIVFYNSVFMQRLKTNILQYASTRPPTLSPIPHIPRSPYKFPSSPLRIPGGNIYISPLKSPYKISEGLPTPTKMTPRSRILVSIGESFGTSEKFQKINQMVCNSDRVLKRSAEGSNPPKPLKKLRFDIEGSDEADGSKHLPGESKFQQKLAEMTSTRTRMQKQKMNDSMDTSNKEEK

Consider “3X FLAG-tagged cyclin A-Cdk2 fusion complex (enzyme)”, for which the in vitro kinase assay: fold less phosphorylation than wild type Rb came to 2.9 fold.
In turn, “3X FLAG-tagged cyclin E1-Cdk2 fusion complex (enzyme)” gave an in vitro kinase assay: fold less phosphorylation than wild type Rb of 2 fold.

The values above are taken from paper PMC6800134.
